This is an account of results in US20130330358A1 (UNIVERSITY OF SOUTHERN CALIFORNIA, published 2013).

Assay [1] has as its target HAUSP TRAF domain (HAUSP^62-205) (human). In words: ITC, titration against HAUSP TRAF domain, 20 °C. A general note: ITC needs no label: the signal is the heat of the interaction.
The target is the same in assay [2]. In words: competitive ITC: vIRF4^202-216 titrated into TRAF pre-titrated with p53^350-364 (competitor).
For assay [3] the target is unchanged. In words: competitive ITC: vIRF4^202-216 titrated into TRAF pre-titrated with p53^355-369 (competitor).
The target is the same in assay [4]. Nature of the assay: competitive ITC: vIRF4^202-216 titrated into TRAF pre-titrated with MDM2^137-152 (competitor).
The target is the same in assay [5]. In words: ITC.

Sequence of HAUSP TRAF domain (HAUSP^62-205) (human) (chain, as listed by the source): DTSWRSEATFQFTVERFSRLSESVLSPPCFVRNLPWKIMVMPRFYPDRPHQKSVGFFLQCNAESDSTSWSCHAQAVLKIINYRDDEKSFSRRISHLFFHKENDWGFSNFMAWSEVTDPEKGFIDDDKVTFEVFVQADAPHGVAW

B1: vIRF4^202-216 peptide (vif1) (peptide)
peptide: SVWIPVNEGASTSGM
notes: Synthesized peptide (Peptron); also called vif1 peptide
For the molecule B1, in assay [1], the TΔS was -10.6 kcal/mol, the ΔG is -8.6 kcal/mol and the ΔH is -19.2 kcal/mol. In assay [2], this molecule yielded a ΔHobs of -19.1 kcal/mol. The molecule also had a ΔHobs in assay [3] of -19.1 kcal/mol. In addition, the ΔHobs in assay [4] was -25.9 kcal/mol.

B2: vIRF4^153-256 (other)
chain: SDTREQSYEEAGAAAPAPPKAPSGLRGRPRKSNRYYNVGDITTEQKAACSVWIPVNEGASTSGMGSSGTRQVTQASSFTWRVPGDPPAPSTLTGPSDPHSSGAG
With B2, in assay [5], the “fold higher affinity (against vIRF4^153-216)” value was 7 fold.
